The target of assay [1] is T1, D1 domain of human IL-2Rγ extracellular domain expressed with a C-terminal myc-myc-hexahistidine tag (human).
T1 construct: also called human IL2Rγ domain 1
T1 chain: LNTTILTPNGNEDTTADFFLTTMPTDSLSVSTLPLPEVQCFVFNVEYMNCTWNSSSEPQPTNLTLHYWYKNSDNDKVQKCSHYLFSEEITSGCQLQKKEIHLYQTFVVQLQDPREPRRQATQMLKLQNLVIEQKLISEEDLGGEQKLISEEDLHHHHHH
In words: SPR, mAb captured on anti-hFc, 37 C. The method in brief:
(§1)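 KD and dissociative half-life come from rate constants obtained by 1:1 binding-model fits of real-time sensorgrams. Antibodies sit on an anti-human Fc capture surface, with HBS-ET (pH 7.4) as running buffer and an 8-10 minute dissociation phase.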

Assay [2] concerns the target T1, D1 domain of human IL-2Rγ extracellular …. In words: SPR, mAb captured on anti-hFc, 25 C. The method in brief:
as §1
(In general: In SPR one partner is held on a chip, and binding of the other changes the refractive index at the surface.)

The target in assay [3] is T2, D2 domain of human IL2Rγ extracellular domain expressed with a C-terminal myc-myc-hexahistidine tag (human).
T2 construct: also called human IL2Rγ domain 2
T2 chain: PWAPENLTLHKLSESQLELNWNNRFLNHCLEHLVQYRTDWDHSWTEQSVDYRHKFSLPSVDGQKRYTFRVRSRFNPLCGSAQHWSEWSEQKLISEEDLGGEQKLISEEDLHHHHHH
In words: SPR, mAb captured on anti-hFc, 37 C. In outline: (§2)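 Anti-IL2Rγ antibodies held on an anti-human Fc capture surface with receptor binding to them.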

Assay [4] deals with T2, D2 domain of human IL2Rγ extracellular …. In words: SPR, mAb captured on anti-hFc, 25 C. The method in brief:
as §2

In assay [5] the target is T3, human IL2Rγ (endogenously expressed on cells) (human, UniProt P31785 23-369).
T3 sequence (looked up): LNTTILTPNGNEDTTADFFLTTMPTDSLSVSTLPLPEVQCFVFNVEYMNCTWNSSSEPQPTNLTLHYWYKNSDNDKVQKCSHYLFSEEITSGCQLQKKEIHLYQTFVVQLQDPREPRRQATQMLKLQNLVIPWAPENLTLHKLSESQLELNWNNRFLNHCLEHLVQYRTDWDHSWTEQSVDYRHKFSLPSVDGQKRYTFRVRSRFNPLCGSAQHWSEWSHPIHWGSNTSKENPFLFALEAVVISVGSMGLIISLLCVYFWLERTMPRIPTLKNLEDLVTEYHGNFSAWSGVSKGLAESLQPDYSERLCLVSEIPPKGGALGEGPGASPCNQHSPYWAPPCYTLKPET
The experiment in a line: cell-based or functional assay.

Assay [6] has as its target T2, D2 domain of human IL2Rγ extracellular …. In words: SPR, mAb captured on anti-hFc, 25 C; 25 C. How it is done:
(§3) Equilibrium dissociation constants (KD values) for IL-2Rγ binding to purified anti-IL2Rγ monoclonal antibodies were determined using a Biacore 4000 instrument equipped with a real-time surface plasmon resonance biosensor. All binding studies were performed in 10 mM HEPES, 150 mM NaCl, 3 mM EDTA, and 0.05% v/v Surfactant Tween-20, pH 7.4 (HBS-ET) running buffer at 25° C. and 37° C. The Biacore sensor surface was first derivatized by amine coupling with a monoclonal mouse anti-human Fc antibody (GE, # BR-1008-39) to capture anti-IL2Rγ monoclonal antibodies.

In assay [7] the target is T4, Macaca fascicularis IL2Rγ extracellular domain expressed with a C-terminal myc-myc-hexahistidine tag (Macaca fascicularis).
T4 construct: also called mfIL-2Rg-MMH; mfIL-2RG-MMH
T4 chain: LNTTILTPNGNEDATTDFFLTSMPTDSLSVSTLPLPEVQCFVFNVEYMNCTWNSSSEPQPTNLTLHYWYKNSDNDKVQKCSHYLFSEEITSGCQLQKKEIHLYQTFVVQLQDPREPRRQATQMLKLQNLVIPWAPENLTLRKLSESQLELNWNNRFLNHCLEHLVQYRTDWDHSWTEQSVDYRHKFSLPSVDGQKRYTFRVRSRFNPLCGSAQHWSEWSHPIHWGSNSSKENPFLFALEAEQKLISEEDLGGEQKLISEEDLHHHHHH
The experiment in a line: SPR Biacore 4000, mAb captured by anti-hFc, HBS-ET, 25C. In outline:
as §1

The target in assay [8] is T4, Macaca fascicularis IL2Rγ extracellular …. The experiment in a line: SPR Biacore 4000, mAb captured by anti-hFc, 37C, dissociation in PBS-T pH 7.4. The method in brief:
(§4)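 Dissociation of receptor-MMH from Fc-captured IgG4 antibodies ran 6 minutes in PBS-T; kd was obtained by 1:1 curve fitting.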

Assay [9] shares this target. In words: SPR Biacore 4000, mAb captured by anti-hFc, 37C, dissociation in PBS-T pH 6.0. The method in brief: as §4
Assay [10] deals with T5, Human IL2Rγ extracellular domain expressed with a C-terminal myc-myc-hexahistidine tag (human).
T5 construct: also called hIL-2Rg-MMH; hIL-2RG-MMH
T5 chain: T4 chain with A14T, T16A, S22T, R141H, S228T
The experiment in a line: SPR Biacore 4000, mAb captured by anti-hFc, HBS-ET, 25C; 25 C. Here is the method: as §3
The dissociation of monoclonal antibody bound IL2Rγ reagents were monitored for 8-10 minutes in HBS-ET running buffer. Kinetic association (kₐ) and dissociation (kd) rate constants were determined by fitting the real-time sensorgrams to a 1:1 binding model using Scrubber 2.0c curve fitting software. Binding dissociation equilibrium constants (KD) and dissociative half-lives (t_{1/2}) were calculated from the kinetic rate constants as: […]

Where a chain is given by its changes, count along the chain named. Bounds are passed on as bounds.

B1: H4H12871P (antibody, human IgG4 S228P, kappa, V domains shown)
VH: QVQLQESGPGLVKPSQTLSLTCTVSGGSITSGGYYWSWIRQYPGQGLEWIGYIYYSGKTYYNPSFTSRITISVDTSKKQFSLKMSSVTAADTAVYYCARAGFTSSNGWFDPWGQGTLVTVSS
VL: DIQMTQSPSSLSASVGDRVTITCRASQNIRSYLNWYQQKPGKAPKLLIYSASSLQSGVPSRFSGSGSGTDFTLTISSLQPEDFPTYYCQQTYSSPWTFGPGTKVEIKR
notes: human IgG4; also called REGN9434
Broadly, the Kd is the constant that tells how readily two partners part at equilibrium. Higher therefore signals a looser complex. The term koff denotes the first-order rate constant of dissociation. A high value points to a short-lived complex. As usually defined, the kon is the second-order rate constant of association. A word on the t½: it is the time needed for the level to fall by half in the phase considered. Read a low t½ as rapid decline. Take B1: in assay [1], the “100 nM Ag Bound” value was determined as 33 RU; the affinity, expressed as Kd, was 21.2 nM; the koff is 0.0036 s⁻¹; the on-rate (kon) came out at 170000 M⁻¹ s⁻¹. The same molecule displayed a t½ in assay [1] of 3.2 min. Besides, in assay [2], the “100 nM Ag Bound” value came to 47 RU, the dissociation constant Kd turned out to be 11.8 nM, the off-rate constant (koff) was 0.00111 s⁻¹ and the kon amounted to 94000 M⁻¹ s⁻¹. The same molecule displayed a t½ in assay [2] of 10 min. Also, the “100 nM Ag Bound” value in [3] is -1 RU. The “100 nM Ag Bound” value in [4] was determined as 0 RU. Also, in [5], the “IC50; IL-7 50 pM; NK92/hIL7R/STAT3-luc” value is 8.2e-10 M, the “Max Inhibition (%); IL-4 250 pM; Ramos.2G6.4C10/STAT3-luc” value turned out to be 31% and the “Max Inhibition (%); IL-7 50 pM; NK92/hIL7R/STAT3-luc” value is 36%.

B2: H4H12927P2 (antibody, human IgG4 S228P, kappa, V domains shown)
VH: EVQLVESGGGVVRPGGSLRLSCATSGFTFDDYGMSWVRQVPGKGLEWVSSVNRNGGTTDYADSVKGRFTISRDNAKRSLFLQMNSLRAEDTALYHCATGELFFDYWGQGTLVTVSS
VL: not shown
notes: human IgG4
For B2, the “100 nM Ag Bound” value in [1] came out at 1 RU. In addition, in assay [2], the “100 nM Ag Bound” value came out at 0 RU and the binding result is recorded as “no binding (tested: 100 nM)”. In assay [6], this molecule had a dissociation constant Kd of 69.9 nM, an off-rate constant (koff) of 0.0166 s⁻¹, a kon of 238000 M⁻¹ s⁻¹ and a t½ of 0.7 min. Also, in assay [5], the “IC50; IL-7 50 pM; NK92/hIL7R/STAT3-luc” value is over 1e-07 M, the “Max Inhibition (%); IL-2 30 pM; NK92/hIL7R/STAT3-luc” value was determined as 18%, the “Max Inhibition (%); IL-4 250 pM; Ramos.2G6.4C10/STAT3-luc” value worked out at 33% and the “Max Inhibition (%); IL-7 50 pM; NK92/hIL7R/STAT3-luc” value is 46%. Further, the “Max Inhibition (%); IL-15 60 pM; NK92/hIL7R/STAT3-luc” value in assay [5] stood at 34%.

B3: H4H12927P2 (antibody, human IgG4 S228P, kappa, V domains shown)
VH: B2 VH
VL: not shown
notes: anti-IL2Rγ monoclonal antibody expressed with human IgG4 Fc
As to B3, in [7], the “100 nM Ag Bound” value is 12 RU, the dissociation constant (Kd) was 238 nM, the koff turned out to be 0.00686 s⁻¹ and the kon was 28800 M⁻¹ s⁻¹. This molecule also came in with a t1/2 in [7] of 1.7 min. In addition, in assay [8], the “100 nM Ag Bound (RU)” value amounted to 27 RU, the koff was determined as 0.00596 s⁻¹ and the t1/2 came out at 1.9 min. Also, in assay [9], the “100 nM Ag Bound (RU)” value was 22 RU, the off-rate (koff) was determined as 0.0129 s⁻¹ and the t1/2 was 0.9 min. In addition, in assay [10], binding was characterised by a dissociation constant (Kd) of 96.5 nM, the off-rate constant (koff) came out at 0.00555 s⁻¹, the kon stood at 57500 M⁻¹ s⁻¹ and the t1/2 is 2.1 min.

B4: H4H12926P2 (antibody, human IgG4 S228P, kappa, V domains shown)
VH: QVQLQQSGPGLVKPSQTLSLTCAISGDSVSSNIAAWNWIRLSPSRGLEWLGRTFFRSTWFYDYSLSVKGRITINPDTSKNQFSLHLNSVTPEDAAVYYCARTGRRWSLDYWGQGTLVTVSS
VL: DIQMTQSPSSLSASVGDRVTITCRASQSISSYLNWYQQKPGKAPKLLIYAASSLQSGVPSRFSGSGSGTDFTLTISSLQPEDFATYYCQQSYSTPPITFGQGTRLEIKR
notes: as for B3
In the case of B4, in assay [7], the “100 nM Ag Bound” value worked out at 11 RU, the Kd was determined as 107 nM, the koff stood at 0.0261 s⁻¹ and the on-rate constant (kon) came out at 244000 M⁻¹ s⁻¹. This molecule yielded a t1/2 in assay [7] of 0.4 min. Further, in assay [8], the “100 nM Ag Bound (RU)” value turned out to be 25 RU, the dissociation rate constant (koff) was found to be 0.0279 s⁻¹ and the t1/2 came out at 0.4 min. For the same molecule, in assay [9], the “100 nM Ag Bound (RU)” value stood at 20 RU, the koff amounted to 0.0303 s⁻¹ and the t1/2 was found to be 0.4 min. In assay [10], this molecule returned a Kd of 132 nM, a koff of 0.0264 s⁻¹, a kon of 200000 M⁻¹ s⁻¹ and a t1/2 of 0.4 min.

B5: H4H12874P (antibody, human IgG4 S228P, kappa, V domains shown)
VH: QVQLVESGGGVVQPGRSLRLSCAASGFNFRNFGMHWVRQAPGKGLEWVAGILYDGSSKYYADSVKDRFTISRDNSKNTLFLQMNSLRAEDTAMYYCAKEEDTAMVPFDSWGPGTLVTVSS
VL: DIQLTQSPSFLSASVGDRVTITCWASQGISSYLAWYQQKPGKAPTLLIYAASTLQSGVPSRFSGSGSGTEFTLTISSLQPEDFASYYCQQLKSYPLTFGGGTKVEIKR
notes: human IgG4
Consider B5, for which, in assay [1], the “100 nM Ag Bound” value was found to be 1 RU and the binding result was “no binding (tested: 100 nM)”. In addition, the “100 nM Ag Bound” value in [2] was found to be 0 RU. In assay [6], this molecule yielded a Kd of 214 nM, a koff of 0.0435 s⁻¹, an association rate constant (kon) of 203000 M⁻¹ s⁻¹ and a t½ of 0.3 min. In addition, in [5], the “IC50; IL-4 250 pM; Ramos.2G6.4C10/STAT3-luc” value was over 1e-07 M, the “IC50; IL-7 50 pM; NK92/hIL7R/STAT3-luc” value was 4.1e-08 M, the “IC50; IL-9 20 pM; NK92/hIL7R/STAT3-luc” value was over 1e-07 M and the “IC50; IL-15 60 pM; NK92/hIL7R/STAT3-luc” value is over 1e-07 M. Besides, in assay [5], the “Max Inhibition (%); IL-2 30 pM; NK92/hIL7R/STAT3-luc” value was 26%, the “Max Inhibition (%); IL-4 250 pM; Ramos.2G6.4C10/STAT3-luc” value worked out at 70%, the “Max Inhibition (%); IL-7 50 pM; NK92/hIL7R/STAT3-luc” value was 93% and the “Max Inhibition (%); IL-9 20 pM; NK92/hIL7R/STAT3-luc” value amounted to 50%. The “Max Inhibition (%); IL-15 60 pM; NK92/hIL7R/STAT3-luc” value in assay [5] was found to be 55%.

For the origin of these results see US20200247894A1 (Regeneron, published 2020).
